Source: US6544504B1, “Combined use of interleukin 10 and methotrexate for immuno-modulatory therapy” (Schering Corporation, priority 1999, dated 2003)
“Also recorded” adds a separate entry of the source.

Experiments:
Assay type in all cases: in vivo, human
[1] = tested on: TNFα, IL-1β, soluble TNF p55 and p75 receptors, IL-1 receptor antagonist; assay: Ex-vivo induced proinflammatory cytokines and circulating soluble TNF receptors / IL-1 receptor antagonist; conditions: nearly all IL-10 treatment groups compared with placebo, plus MTX
Protocol: (§1) Fifty patients were to receive one of five dosing regimens of IL-10 (SC) (1 μg/kg daily, 4 μg/kg daily, 8 μg/kg three times a week [TIW], 8 μg/kg daily and 20 μg/kg TIW) or placebo for 28 days, in addition to stable dosing with MTX (Treatment Phase). The patients were followed for 8 weeks after the end of IL-10 dosing (Follow-up Phase). Patients received MTX at therapeutic doses for at least 4 months prior to study entry. The dose of MTX was 12.5-25 mg/week (oral, subcutaneous or intramuscular) and remained constant throughout the study (Screening, Treatment and Follow-up Phases).
(§2) The primary objective was to evaluate, in a dose-escalating manner, the safety and tolerance of IL-10 (SC) therapy given daily or TIW plus MTX (oral/intramuscular/SC) over a 28 day period to patients with active rheumatoid arthritis. The secondary objectives were to evaluate the effect of IL-10 on measures of rheumatoid arthritis Disease Activity, and to determine changes in the circulating levels of soluble p55 and p75 TNF receptors and IL-1 receptor antagonist. […]

[2] = tested on: patients with active rheumatoid arthritis; assay: Safety and tolerance study of IL-10 plus stable MTX in active rheumatoid arthritis
Protocol: (§3) A multinational, multicenter, sequentially randomized, double-blind, placebo-controlled, rising multiple-dose study of IL-10 plus methotrexate (MTX) treatment was completed in patients with active rheumatoid arthritis.
as §1
(§4) Patients were sequentially enrolled into the study in dose cohorts starting with the lowest dose of IL-10. Safety was assessed for each dose level prior to progressing to the next higher dose. Ten patients were assessed at each of the IL-10 dose cohorts: 8 received IL-10 and 2 received placebo (4:1). There was no replacement of patients.
as §2, with “antagonist. Protocol-defined responders were defined as those patients with at least 20% ACR criteria, i.e. at least 20% improvement in number of tender joints, number of swollen joints and in at least 3 of 5 RA Disease Activity measures (i.e. subject's assessment of pain, disease activity or physical function and physician's global assessment of disease activity.” for “antagonist.”

[3] = tested on: patients with active rheumatoid arthritis; assay: Rheumatoid arthritis Disease Activity / ACR response in the IL-10 plus MTX study
Protocol: as §3, §1, §4
The primary objective was to evaluate, in a dose-escalating manner, the safety and tolerance of IL-10 (SC) therapy given daily or TIW plus MTX (oral/intramuscular/SC) over a 28 day period to patients with active rheumatoid arthritis. The secondary objectives were to evaluate the effect of IL-10 on measures of rheumatoid arthritis Disease Activity, and to determine changes in the circulating levels of soluble p55 and p75 TNF receptors and IL-1 receptor antagonist. Protocol-defined responders were defined as those patients with at least 20% ACR criteria, i.e. at least 20% improvement in number of tender joints, number of swollen joints and in at least 3 of 5 RA Disease Activity measures (i.e. subject's assessment of pain, disease activity or physical function and physician's global assessment of disease activity.
Fifty patients were enrolled and sequentially randomized to receive one of the five dosing regimens of IL-10 (SC) (1 μg/kg daily, 4 μg/kg daily, 8 μg/kg TIW, 8 μg/kg daily and 20 μg/kg TIW) or placebo which formed the intent-to-treat population (ITT). Mean duration of treatment was at least 26 days for each of the treatment groups. The treatment groups were similar in demographic characteristics except for slight differences in age. Baseline characteristics of RA Disease Activity were similar for treatment groups.

[4] = each IL-10 dose group plus MTX versus placebo plus MTX

- production of ex-vivo induced proinflammatory cytokines (TNFα and IL-1β) [1]: trend towards decreased production
Substance: IL-10: a cytokine produced by T lymphocytes; protein with sequence substantially identical to mature IL-10; most preferably recombinant human IL-10
- circulating serum levels of soluble TNF p55 and TNF p75 receptors and IL-1 receptor antagonists [1]: trend towards increased circulating serum levels
- safety and tolerance ([2]; IL-10 SC 1-20 μg/kg daily or TIW for 28 days plus stable MTX 12.5-25 mg/week): generally well tolerated; also recorded: safe and well tolerated
- most frequently reported adverse events ([2]; IL-10 SC for 28 days plus stable MTX): headache, injection site reaction, nausea, musculoskeletal pain, with no dose-response relationship seen
- anti-dsDNA or anti IL-10 antibodies ([2]; IL-10 SC for 28 days plus stable MTX, any time during the study): No anti-dsDNA or anti IL-10 antibodies were present
- effects on rheumatoid arthritis Disease Activity (conclusion) ([3]; IL-10 in combination with MTX, greatest for 8 μg/kg TIW, 8 μg/kg daily and 20 μg/kg TIW): may have beneficial effects
- protocol-defined response (percentage of responders) ([3]; after 28 days of dosing versus baseline, ITT population, compared with placebo plus MTX): trend toward a greater percentage of responders
- mean change from baseline for individual clinical measures of rheumatoid arthritis disease activity ([3]; after 28 days, compared with placebo plus MTX): generally showing a greater percentage of responders than in placebo group
- percent of patients having a 20% improvement in disease activity (ACR 20) [3, 4]: higher for each of the IL-10 treatment groups than for the placebo group
- percent of patients having a 50% improvement in disease activity (ACR 50) [3, 4]: higher for each of the IL-10 treatment groups than for the placebo group
